In patent US20140087995A1 (published 2014):
Numbered stars: 1 amine (or outer) side, 2 acyl side, 3 side chain; on linkers, the order of the positions; unused ones are H or OH. Bridge positions count the residues as written; N and C are the ends. * marks the point of attachment. C20 diacid = O=C(O)CCCCCCCCCCCCCCCCCCC(=O)*; γGlu = O=C(O)[C@H](CCC(=O)[*:2])N[*:1]

T1: human amylin receptor (human, UniProt P30988 25-474; O60896 24-148, limits assumed)
T1 construct: whole, on cells; Calcitonin receptor plus RAMP-3 gives the amylin 3(a) receptor; membranes of Amylin 3(a)/CRE-luc cells were used; also called hAmylin-R; hAmylinR
T1 sequence (looked up) 1: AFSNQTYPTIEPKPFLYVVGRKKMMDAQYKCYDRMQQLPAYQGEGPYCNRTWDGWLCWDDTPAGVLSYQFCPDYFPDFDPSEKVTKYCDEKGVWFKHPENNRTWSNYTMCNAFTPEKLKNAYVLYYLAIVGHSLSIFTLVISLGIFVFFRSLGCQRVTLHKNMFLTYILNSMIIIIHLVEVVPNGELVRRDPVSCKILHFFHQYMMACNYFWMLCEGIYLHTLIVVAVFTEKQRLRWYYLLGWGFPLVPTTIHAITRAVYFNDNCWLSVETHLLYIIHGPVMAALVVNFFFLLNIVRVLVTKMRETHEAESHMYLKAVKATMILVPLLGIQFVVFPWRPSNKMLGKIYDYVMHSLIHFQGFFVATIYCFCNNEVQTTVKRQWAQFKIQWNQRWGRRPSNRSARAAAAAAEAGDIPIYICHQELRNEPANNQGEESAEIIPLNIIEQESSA
T1 sequence (looked up) 2: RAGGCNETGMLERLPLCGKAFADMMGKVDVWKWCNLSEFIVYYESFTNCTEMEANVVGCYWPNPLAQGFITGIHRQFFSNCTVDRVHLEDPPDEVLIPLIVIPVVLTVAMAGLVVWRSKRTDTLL


Biological target: T1, human amylin receptor
Assay: SPA competition binding, displacement of 125I-rat amylin from membranes with human amylin 3(a) receptor (Assay V)
Experimental: The binding assay was performed using scintillation proximity assay (SPA) beads (RPNQ0001) from PerkinElmer and cell membranes from the Amylin 3(a)/CRE-luc cells (as described in Assay (II)) were used. Membranes were prepared in the following way; the cells were rinsed with PBS and incubated with Versene for approximately 5 min before harvesting. The cells were flushed with PBS and the cell-suspension was centrifuged for 5 min at 1000 rpm. Cells were homogenized (ultrathurrax) in a buffer containing 20 mM Na-HEPES and 10 mM EDTA (pH 7.4) and centrifuged at 20.000 rpm for 15 min. The resulting pellet was resuspended, homogenized and centrifuged (20.000 rpm, 15 min) in a buffer containing 20 mM Na-HEPES and 0.1 mM EDTA (pH 7.4, buffer 2). The resulting pellet was resuspended in buffer 2 and protein concentration was measured (BCA protein Assay, Pierce). The homogenate was kept cold during the whole procedure. The membranes were kept at −80° C. until use. The assay was performed in a 384 well Optiplate (PerkinElmer) in a total volume of 40 ul. Membranes were mixed with SPA beads. Final concentration of membranes 35 ng/μL final and SPA beads was 0.05 mg/well. Test-compounds were dissolved in DMSO and further diluted in assay buffer (50 mM Hepes, pH 7.4, 1 mM CaCl2, 5 mM MgCl₂, 0.1% OA and 0.02% Tween20). […] The final mixture was incubated with shaking at 400 rpm for 120 min at 25° C. prior to centrifugation (1500 rpm, 10 min). Samples were analyzed on TopCounter™ (Packard). The IC₅₀ was calculated using (one site binding competition analysis) GraphPad Prism5 as a measure of receptor affinity.

Row | Binder | IC50
1 | {C20 diacid-γGlu}-KCNTATCATQRLAEFLRHSSPNFGAPLSSTNVGSNTY-NH2 (disulfide 2-7; SMILES CC(C)C[C@H](NC(=O)[C@H](CCCNC(=N)N)NC(=O)[C@H](CCC(N)=O)NC(=O)[C@@H](NC(=O)[C@H](C)NC(=O)[C@@H]1CSSC[C@H](NC(=O)[C@H](CCCCN)NC(=O)CC[C@H](NC(=O)CCCCCCCCCCCCCCCCCCC(=O)O)C(=O)O)C(=O)N[C@@H](CC(N)=O)C(=O)N[C@@H]([C@@H](C)O)C(=O)N[C@@H](C)C(=O)N[C@@H]([C@@H](C)O)C(=O)N1)[C@@H](C)O)C(=O)N[C@@H](C)C(=O)N[C@@H](CCC(=O)O)C(=O)N[C@@H](Cc1ccccc1)C(=O)N[C@@H](CC(C)C)C(=O)N[C@@H](CCCNC(=N)N)C(=O)N[C@@H](Cc1c[nH]cn1)C(=O)N[C@@H](CO)C(=O)N[C@@H](CO)C(=O)N1CCC[C@H]1C(=O)N[C@@H](CC(N)=O)C(=O)N[C@@H](Cc1ccccc1)C(=O)NCC(=O)N[C@@H](C)C(=O)N1CCC[C@H]1C(=O)N[C@@H](CC(C)C)C(=O)N[C@@H](CO)C(=O)N[C@@H](CO)C(=O)N[C@H](C(=O)N[C@@H](CC(N)=O)C(=O)N[C@H](C(=O)NCC(=O)N[C@@H](CO)C(=O)N[C@@H](CC(N)=O)C(=O)N[C@H](C(=O)N[C@@H](Cc1ccc(O)cc1)C(N)=O)[C@@H](C)O)C(C)C)[C@@H](C)O, also called 14E, 17R, 21P, 26P) [N^α1-[(4S)-4-carboxy-4-(19-carboxynonadecanoylamino)butanoyl]-[Glu14,Arg17,Pro21,Pro26]-h-amylin] | 0.674 nM
2 | {C20 diacid-γGlu}-KCNTATCATQRLAEFLRHSSPNFGAIPSSTNVGSHTY-NH2 (disulfide 2-7; SMILES CC[C@H](C)[C@H](NC(=O)[C@H](C)NC(=O)CNC(=O)[C@H](Cc1ccccc1)NC(=O)[C@H](CC(N)=O)NC(=O)[C@@H]1CCCN1C(=O)[C@H](CO)NC(=O)[C@H](CO)NC(=O)[C@H](Cc1c[nH]cn1)NC(=O)[C@H](CCCNC(=N)N)NC(=O)[C@H](CC(C)C)NC(=O)[C@H](Cc1ccccc1)NC(=O)[C@H](CCC(=O)O)NC(=O)[C@H](C)NC(=O)[C@H](CC(C)C)NC(=O)[C@H](CCCNC(=N)N)NC(=O)[C@H](CCC(N)=O)NC(=O)[C@@H](NC(=O)[C@H](C)NC(=O)[C@@H]1CSSC[C@H](NC(=O)[C@H](CCCCN)NC(=O)CC[C@H](NC(=O)CCCCCCCCCCCCCCCCCCC(=O)O)C(=O)O)C(=O)N[C@@H](CC(N)=O)C(=O)N[C@@H]([C@@H](C)O)C(=O)N[C@@H](C)C(=O)N[C@@H]([C@@H](C)O)C(=O)N1)[C@@H](C)O)C(=O)N1CCC[C@H]1C(=O)N[C@@H](CO)C(=O)N[C@@H](CO)C(=O)N[C@H](C(=O)N[C@@H](CC(N)=O)C(=O)N[C@H](C(=O)NCC(=O)N[C@@H](CO)C(=O)N[C@@H](Cc1c[nH]cn1)C(=O)N[C@H](C(=O)N[C@@H](Cc1ccc(O)cc1)C(N)=O)[C@@H](C)O)C(C)C)[C@@H](C)O, also called 14E, 17R, 21P, 27P, 35H) | 0.554 nM
3 | {C20 diacid-γGlu}-KCNTATCATQRLAEFLRHSSPNFGAIPSSTNVGPNTY-NH2 (disulfide 2-7; SMILES CC[C@H](C)[C@H](NC(=O)[C@H](C)NC(=O)CNC(=O)[C@H](Cc1ccccc1)NC(=O)[C@H](CC(N)=O)NC(=O)[C@@H]1CCCN1C(=O)[C@H](CO)NC(=O)[C@H](CO)NC(=O)[C@H](Cc1c[nH]cn1)NC(=O)[C@H](CCCNC(=N)N)NC(=O)[C@H](CC(C)C)NC(=O)[C@H](Cc1ccccc1)NC(=O)[C@H](CCC(=O)O)NC(=O)[C@H](C)NC(=O)[C@H](CC(C)C)NC(=O)[C@H](CCCNC(=N)N)NC(=O)[C@H](CCC(N)=O)NC(=O)[C@@H](NC(=O)[C@H](C)NC(=O)[C@@H]1CSSC[C@H](NC(=O)[C@H](CCCCN)NC(=O)CC[C@H](NC(=O)CCCCCCCCCCCCCCCCCCC(=O)O)C(=O)O)C(=O)N[C@@H](CC(N)=O)C(=O)N[C@@H]([C@@H](C)O)C(=O)N[C@@H](C)C(=O)N[C@@H]([C@@H](C)O)C(=O)N1)[C@@H](C)O)C(=O)N1CCC[C@H]1C(=O)N[C@@H](CO)C(=O)N[C@@H](CO)C(=O)N[C@H](C(=O)N[C@@H](CC(N)=O)C(=O)N[C@H](C(=O)NCC(=O)N1CCC[C@H]1C(=O)N[C@@H](CC(N)=O)C(=O)N[C@H](C(=O)N[C@@H](Cc1ccc(O)cc1)C(N)=O)[C@@H](C)O)C(C)C)[C@@H](C)O, also called 14E, 17R, 21P, 27P, 34P) | 0.1 nM
4 | {C20 diacid-γGlu}-KCNTATCATQRLAEFLRHSSPNFGAIPSSTPVGSNTY-NH2 (disulfide 2-7; SMILES CC[C@H](C)[C@H](NC(=O)[C@H](C)NC(=O)CNC(=O)[C@H](Cc1ccccc1)NC(=O)[C@H](CC(N)=O)NC(=O)[C@@H]1CCCN1C(=O)[C@H](CO)NC(=O)[C@H](CO)NC(=O)[C@H](Cc1c[nH]cn1)NC(=O)[C@H](CCCNC(=N)N)NC(=O)[C@H](CC(C)C)NC(=O)[C@H](Cc1ccccc1)NC(=O)[C@H](CCC(=O)O)NC(=O)[C@H](C)NC(=O)[C@H](CC(C)C)NC(=O)[C@H](CCCNC(=N)N)NC(=O)[C@H](CCC(N)=O)NC(=O)[C@@H](NC(=O)[C@H](C)NC(=O)[C@@H]1CSSC[C@H](NC(=O)[C@H](CCCCN)NC(=O)CC[C@H](NC(=O)CCCCCCCCCCCCCCCCCCC(=O)O)C(=O)O)C(=O)N[C@@H](CC(N)=O)C(=O)N[C@@H]([C@@H](C)O)C(=O)N[C@@H](C)C(=O)N[C@@H]([C@@H](C)O)C(=O)N1)[C@@H](C)O)C(=O)N1CCC[C@H]1C(=O)N[C@@H](CO)C(=O)N[C@@H](CO)C(=O)N[C@H](C(=O)N1CCC[C@H]1C(=O)N[C@H](C(=O)NCC(=O)N[C@@H](CO)C(=O)N[C@@H](CC(N)=O)C(=O)N[C@H](C(=O)N[C@@H](Cc1ccc(O)cc1)C(N)=O)[C@@H](C)O)C(C)C)[C@@H](C)O, also called 14E, 17R, 21P, 27P, 31P) | 0.204 nM
5 | {C20 diacid-γGlu}-KCNTATCATQRLAEFLRHSSPNFGAIPSSTNVGSDTP-NH2 (disulfide 2-7; SMILES CC[C@H](C)[C@H](NC(=O)[C@H](C)NC(=O)CNC(=O)[C@H](Cc1ccccc1)NC(=O)[C@H](CC(N)=O)NC(=O)[C@@H]1CCCN1C(=O)[C@H](CO)NC(=O)[C@H](CO)NC(=O)[C@H](Cc1c[nH]cn1)NC(=O)[C@H](CCCNC(=N)N)NC(=O)[C@H](CC(C)C)NC(=O)[C@H](Cc1ccccc1)NC(=O)[C@H](CCC(=O)O)NC(=O)[C@H](C)NC(=O)[C@H](CC(C)C)NC(=O)[C@H](CCCNC(=N)N)NC(=O)[C@H](CCC(N)=O)NC(=O)[C@@H](NC(=O)[C@H](C)NC(=O)[C@@H]1CSSC[C@H](NC(=O)[C@H](CCCCN)NC(=O)CC[C@H](NC(=O)CCCCCCCCCCCCCCCCCCC(=O)O)C(=O)O)C(=O)N[C@@H](CC(N)=O)C(=O)N[C@@H]([C@@H](C)O)C(=O)N[C@@H](C)C(=O)N[C@@H]([C@@H](C)O)C(=O)N1)[C@@H](C)O)C(=O)N1CCC[C@H]1C(=O)N[C@@H](CO)C(=O)N[C@@H](CO)C(=O)N[C@H](C(=O)N[C@@H](CC(N)=O)C(=O)N[C@H](C(=O)NCC(=O)N[C@@H](CO)C(=O)N[C@@H](CC(=O)O)C(=O)N[C@H](C(=O)N1CCC[C@H]1C(N)=O)[C@@H](C)O)C(C)C)[C@@H](C)O, also called 14E, 17R, 21P, 27P, 35D, 37P) | 0.105 nM
